Experimental data from patent publication US9439886B2, “Methods for producing crosslinked flavonoid hydrogels” (Agency for Science, Technology and Research, priority 2009, dated 2016).

Key:
[1] = Gelation time of HA-EGCG hydrogels (vial tilting); type: physicochemical; settings: pH 7.4, no exogenous H2O2, HA-EGCG 17.5 mg/ml
Protocol: Preparation of HA-EGCG solution: For all experiments described below, HA-EGCG stock solution was prepared by dissolving the conjugates in distilled water at 25 mg/ml at room temperature using a magnetic stirrer. Dissolution took about 25 min and the pH of the solution was 2.5. Then the pH was brought to 6 using 2 M NaOH before diluting with sodium phosphate buffer (final ionic strength: 0.15 M) to the desired concentration and pH, depending on the gelation condition.
Formation of HA-EGCG hydrogels through air autoxidation: To form HA-EGCG hydrogel by air autoxidation, HA-EGCG solution was diluted to 17.5 mg/ml by adding sodium phosphate buffer with pH between 6.0 to 8. To determine the gelation time, glass vials containing 0.25 ml of HA-EGCG were tilted frequently at 90 degrees for 5 sec, the time at which no obvious flowing motion could be observed was recorded as the gelation time.
Acceleration of HA-EGCG hydrogel formation through air autoxidation by adding catalase: Stock solution of catalase was prepared by dissolving the enzyme in distilled water at 22.5 kU/ml. […] The gelation time was determined as described above.
Formation of HA-EGCG hydrogel by HRP-mediated crosslinking reaction: HRP stock solution was prepared in water at 6.25 U/ml. […] The gelation time was determined as described above.

[2] = H2O2 production by HA-EGCG (PeroXOquant peroxide assay); type: physicochemical; settings: HA-EGCG 10 mg/ml; pH 7.4; over 35 min; increased with time
Protocol: Measurement of H2O2 Production by HA-EGCG: The amount of H2O2 produced by HA-EGCG was determined using the PeroXOquant Quantitative Peroxide Assay Kits from Pierce. In order to determine the amount of H2O2 produced during the dissolution process, a sample of the dissolved conjugates was diluted 20-fold with distilled water, 20 μl of which was added to the well of a 96-wellplate follow by the addition of 200 μl working reagent prepared according to manufacturer's protocol. The HA-EGCG solution was then diluted to 10 mg/ml with phosphate buffer. The final ionic strength of the mixture was 0.15 M and pH was 7.4. For the next 35 min, 20 μl of the HA-EGCG solution was drawn out every 5 min and diluted 10-fold with distilled water. 20 μl of the diluted sample was then added to a well of a 96-wellplate followed by 200 μl of working reagents. After the last sample was collected and the working reagent added, the plate was incubated for another 1 h before reading the absorbance at 595 nm. The amount of H2O2 produced by HA-EGCG was determined by comparing to a set of H2O2 standards.

hyaluronic acid-epigallocatechin gallate [HA-EGCG]
gelation time ([1]; HRP 0 unit/ml): 50 min
gelation time ([1]; HRP 0.125 unit/ml): 9 min
amount of H2O2 generated during air-autoxidation [2]: micromolar range
